Experimental data taken from the supplement of paper PMC10724198.
± gives the standard deviation of the averaged measurements.

Key:
[1] = test system: Saccharomyces cerevisiae; test: protein stability index of tFT-peptide fusion (C-terminal peptide) (PSI (0-1 scale)); higher = more stable (slower turnover)
Method: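 MPS profiling in S. cerevisiae of the tFT-X12 degron library: putative degron peptides plus stable controls, 12 aa, fused to the C-terminus of a sfGFP-mCherry timer. Cells are FACS-sorted into 8 mCherry/sfGFP bins and deep-sequenced. PSI runs from 0 (unstable) to 1 (stable). Backgrounds are wild type, das1Δ and doa10Δ at 30 °C, and wild type, das1Δ, cdc34-1 and cdc53-1 at 37 °C; 2-3 technical replicates each.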

[2] = test system: Saccharomyces cerevisiae; test: as above; conditions: genetic background: wild type; temperature: 30 C
[3] = genetic background: cdc34-1, temperature: 37 C
[4] = genetic background: cdc53-1, temperature: 37 C
[5] = genetic background: das1 deletion, temperature: 30 C
[6] = genetic background: das1 deletion, temperature: 37 C
[7] = genetic background: doa10 deletion, temperature: 30 C
[8] = genetic background: wild type, temperature: 30 C
[9] = genetic background: wild type, temperature: 37 C
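Further: PSI is a weighted mean of sequencing reads over stability bins, variants kept only with over 10 reads, mCherry proximal and sfGFP distal, peptide attached via GGGS linker.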

Sequence | protein stability index [1, 3] | protein stability index [1, 4] | protein stability index [1, 5] | protein stability index [1, 6] | protein stability index [1, 7] | protein stability index [1, 8] | protein stability index [1, 9] | protein stability index [2]
GLGMVIIGLLIG | 0.176 ± 0.011 | 0.342 ± 0.09 | 0.224 ± 0.032 | 0.432 ± 0.042 | 0.191 ± 0.0035 | 0.227 ± 0.01 | 0.387 ± 0.0056 | 0.354 ± 0.022
GLLGRCPVVVFG | 0.385 ± 0.041 | 0.397 ± 0.013 | 0.273 ± 0.04 | 0.49774 ± 0.00049 | 0.216 ± 0.013 | 0.285 ± 0.026 | 0.463 ± 0.0047 | 0.378 ± 0.061
GLRFFVSSLLCR | 0.502 ± 0.039 | 0.54807 ± 0.0003 | 0.389 ± 0.036 | 0.5651 ± 0.0036 | 0.377 ± 0.0095 | 0.388 ± 0.02 | 0.555 ± 0.021 | 0.508 ± 0.058
GLVCPWLIVRFV | 0.303 ± 0.051 | 0.3 ± 0.065 | 0.372 ± 0.036 | 0.5 ± 0.0067 | 0.161 ± 0.022 | 0.136 ± 0.0078 | 0.216 ± 0.03 | 0.2 ± 0.015
GLVWSKCFFIVG | 0.637 ± 0.041 | 0.705 ± 0.016 | 0.547 ± 0.014 | 0.7105 ± 0.0018 | 0.2675 ± 0.0018 | 0.295 ± 0.022 | 0.528 ± 0.018 | 0.407 ± 0.033
GLWLRVCIVAWV | 0.0407 ± 0.01 | 0.122 ± 0.017 | 0.0686 ± 0.031 | 0.19 ± 0.0034 | 0.0424 ± 0.011 | 0.0551 ± 0.013 | 0.144 ± 0.0033 | 0.14 ± 0.0097
GLYLVFMGFVPC | 0.471 ± 0.019 | 0.52714 ± 4.2e-05 | 0.33 ± 0.053 | 0.575 ± 0.032 | 0.3169 ± 0.0022 | 0.325 ± 0.034 | 0.505 ± 0.0082 | 0.47 ± 0.029
GNIHHTRFLALL | 0.838 ± 0.04 | 0.859 ± 0.012 | 0.7472 ± 0.0026 | 0.835 ± 0.012 | 0.485 ± 0.017 | 0.498 ± 0.013 | 0.693 ± 0.024 | 0.458 ± 0.0074
GNSAGSVGGGRF | 0.695 ± 0.022 | 0.738 ± 0.02 | 0.627 ± 0.012 | 0.7387 ± 0.0012 | 0.638 ± 0.024 | 0.652 ± 0.014 | 0.7254 ± 0.0028 | 0.705 ± 0.038
GPILVWVMADWG | 0.43 ± 0.036 | 0.506 ± 0.028 | 0.328 ± 0.036 | 0.5493 ± 0.00096 | 0.293 ± 0.0078 | 0.337 ± 0.018 | 0.518 ± 0.012 | 0.447 ± 0.041
GPVRTEFWLYVW | 0.651 ± 0.014 | 0.704 ± 0.022 | 0.55 ± 0.041 | 0.655 ± 0.011 | 0.57 ± 0.031 | 0.583 ± 0.049 | 0.626 ± 0.0066 | 0.553 ± 0.18
GQRIKWGPIYLT | 0.352 ± 0.079 | 0.336 ± 0.0081 | 0.366 ± 0.028 | 0.444 ± 0.013 | 0.397 ± 0.034 | 0.22 ± 0.027 | 0.365 ± 0.052 | 0.249 ± 0.019
GREGETGSKAGR | 0.675 ± 0.008 | 0.708 ± 0.013 | 0.64 ± 0.024 | 0.7282 ± 0.003 | 0.64 ± 0.027 | 0.669 ± 0.021 | 0.717 ± 0.015 | 0.552 ± 0.17
GRGGLRVVVWLV | 0.518 ± 0.069 | 0.642 ± 0.016 | 0.496 ± 0.024 | 0.6652 ± 0.0041 | 0.11 ± 0.017 | 0.123 ± 0.022 | 0.143 ± 0.0029 | 0.189 ± 0.011
GRGLGHWWTVRT | 0.672 ± 0.03 | 0.756 ± 0.024 | 0.698 ± 0.017 | 0.741 ± 0.015 | 0.689 ± 0.013 | 0.704 ± 0.0092 | 0.716 ± 0.012 | 0.751 ± 0.033
GRVAIFTLLWRI | 0.199 ± 0.066 | 0.105 ± 0.041 | 0.256 ± 0.063 | 0.362 ± 0.01 | 0.469 ± 0.052 | 0.252 ± 0.032 | 0.29 ± 0.012 | 0.314 ± 0.12
GSLHWVMVFAVP | 0.604 ± 0.037 | 0.6404 ± 0.0044 | 0.491 ± 0.025 | 0.6582 ± 0.0047 | 0.493 ± 0.033 | 0.487 ± 0.016 | 0.607 ± 0.03 | 0.489 ± 0.042
GSVCVVCWELVV | 0.4883 ± 0.0024 | 0.583 ± 0.0091 | 0.344 ± 0.029 | 0.5561 ± 0.0013 | 0.26 ± 0.0046 | 0.293 ± 0.017 | 0.4792 ± 0.0027 | 0.378 ± 0.04
GSVGFICCVVVV | 0.29 ± 0.022 | 0.4314 ± 0.0042 | 0.332 ± 0.03 | 0.515 ± 0.0078 | 0.268 ± 0.017 | 0.298 ± 0.031 | 0.4546 ± 0.0022 | 0.412 ± 0.0011
GTETWVFVLLKF | 0.102 ± 0.021 | 0.0712 ± 0.011 | 0.169 ± 0.036 | 0.224 ± 0.019 | 0.302 ± 0.026 | 0.165 ± 0.013 | 0.179 ± 0.011 | 0.218 ± 0.031

Sequence | protein stability index [1, 3] | protein stability index [1, 4] | protein stability index [1, 5] | protein stability index [1, 6] | protein stability index [1, 7] | protein stability index [1, 8] | protein stability index [1, 9] | protein stability index [2]
GVFFHFFFLFCF | 0.332 ± 0.025 | 0.352 ± 0.01 | 0.324 ± 0.018 | 0.447 ± 0.0093 | 0.3913 ± 0.0038 | 0.297 ± 0.028 | 0.413 ± 0.0047 | 0.43 ± 0.013
GVSRRWFSLRCI | 0.627 ± 0.039 | 0.717 ± 0.015 | 0.612 ± 0.029 | 0.75 ± 0.013 | 0.125 ± 0.009 | 0.15 ± 0.011 | 0.2424 ± 0.0022 | 0.214 ± 0.0074
GVVCCVVVGRMG | 0.619 ± 0.024 | 0.659 ± 0.024 | 0.474 ± 0.024 | 0.665 ± 0.018 | 0.445 ± 0.032 | 0.451 ± 0.013 | 0.63558 ± 6.8e-05 | 0.503 ± 0.053
GVVRKLCHWVVA | 0.476 ± 0.0049 | 0.516 ± 0.031 | 0.362 ± 0.027 | 0.525 ± 0.0015 | 0.286 ± 0.0046 | 0.322 ± 0.016 | 0.469 ± 0.013 | 0.426 ± 0.04
GWVQFVKAAVLF | 0.655 ± 0.063 | 0.7587 ± 0.0019 | 0.59 ± 0.031 | 0.73964 ± 3.5e-06 | 0.197 ± 0.0058 | 0.211 ± 0.043 | 0.4443 ± 0.0032 | 0.36 ± 0.053
GYACSIFYLRCV | 0.535 ± 0.037 | 0.5771 ± 6.4e-05 | 0.496 ± 0.03 | 0.6266 ± 0.00063 | 0.218 ± 0.0038 | 0.23 ± 0.021 | 0.444 ± 0.016 | 0.377 ± 0.014
GYRFSILSILRV | 0.581 ± 0.031 | 0.611 ± 0.014 | 0.513 ± 0.024 | 0.627 ± 0.012 | 0.488 ± 0.017 | 0.47 ± 0.023 | 0.612 ± 0.016 | 0.482 ± 0.025
HANPGTFGPCTR | 0.654 ± 0.019 | 0.7204 ± 0.006 | 0.645 ± 0.012 | 0.72 ± 0.0081 | 0.658 ± 0.019 | 0.6499 ± 0.0061 | 0.683 ± 0.017 | 0.696 ± 0.048
HGVYSVLRFFFC | 0.664 ± 0.038 | 0.723 ± 0.021 | 0.659 ± 0.011 | 0.671 ± 0.03 | 0.329 ± 0.0035 | 0.365 ± 0.017 | 0.579 ± 0.023 | 0.453 ± 0.0086
HINRTIWARYQV | 0.648 ± 0.069 | 0.742 ± 0.009 | 0.643 ± 0.033 | 0.75 ± 0.021 | 0.156 ± 0.019 | 0.174 ± 0.034 | 0.429 ± 0.032 | 0.362 ± 0.071
HLGNTMIKKLIG | 0.695 ± 0.049 | 0.722 ± 0.046 | 0.621 ± 0.012 | 0.728 ± 0.035 | 0.405 ± 0.033 | 0.459 ± 0.064 | 0.6202 ± 0.0029 | 0.516 ± 0.023
HLYPFPSLHFAF | 0.74 ± 0.043 | 0.791 ± 0.012 | 0.681 ± 0.013 | 0.778 ± 0.026 | 0.683 ± 0.025 | 0.688 ± 0.015 | 0.753 ± 0.019 | 0.799 ± 0.1
HNQDKNVKYKIG | 0.672 ± 0.023 | 0.733 ± 0.034 | 0.625 ± 0.032 | 0.705 ± 0.021 | 0.248 ± 0.006 | 0.33 ± 0.039 | 0.536 ± 0.0064 | 0.41 ± 0.037
HRDVISVVRNMS | 0.625 ± 0.016 | 0.70886 ± 0.00045 | 0.659 ± 0.058 | 0.715 ± 0.019 | 0.246 ± 0.022 | 0.333 ± 0.022 | 0.576 ± 0.012 | 0.43 ± 0.027
HRHCVSSYQKVS | 0.662 ± 0.08 | 0.708 ± 0.013 | 0.648 ± 0.028 | 0.715 ± 0.0042 | 0.242 ± 0.0074 | 0.285 ± 0.027 | 0.556 ± 0.01 | 0.401 ± 0.054
HRNILSIIIKNL | 0.541 ± 0.083 | 0.681 ± 0.027 | 0.642 ± 0.057 | 0.685 ± 0.029 | 0.0819 ± 0.039 | 0.0771 ± 0.015 | 0.1025 ± 0.00088 | 0.109 ± 0.046
ICTHPCLRLRLN | 0.517 ± 0.039 | 0.662 ± 0.028 | 0.634 ± 0.012 | 0.732 ± 0.019 | 0.0875 ± 0.018 | 0.0887 ± 0.016 | 0.144 ± 0.055 | 0.165 ± 0.0032
IDLISRVTVVAR | 0.394 ± 0.02 | 0.4267 ± 0.0012 | 0.268 ± 0.036 | 0.464 ± 0.0081 | 0.2236 ± 0.0022 | 0.288 ± 0.029 | 0.441 ± 0.01 | 0.4 ± 0.0047
IDLVAFCTIFAL | 0.4606 ± 0.0013 | 0.494 ± 0.032 | 0.363 ± 0.03 | 0.516 ± 0.01 | 0.295 ± 0.0078 | 0.33 ± 0.02 | 0.469 ± 0.018 | 0.3975 ± 0.0032
